Assay results taken from publication PMC4358367, “Structural basis of diverse membrane target recognitions by ankyrins” (eLife, 2014).

How the values were obtained:
[1] = target: T1, Nav1.2 ABD C-terminal half (UniProt Q99250)
T1 chain: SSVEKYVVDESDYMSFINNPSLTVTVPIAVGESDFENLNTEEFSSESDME

[2] = target: T2, AnkG_repeats (24 ANK repeats of rat 190 kDa ankyrin-G, residues 38–855) (rat, UniProt O70511 38-855); assay: ITC
T2 chain: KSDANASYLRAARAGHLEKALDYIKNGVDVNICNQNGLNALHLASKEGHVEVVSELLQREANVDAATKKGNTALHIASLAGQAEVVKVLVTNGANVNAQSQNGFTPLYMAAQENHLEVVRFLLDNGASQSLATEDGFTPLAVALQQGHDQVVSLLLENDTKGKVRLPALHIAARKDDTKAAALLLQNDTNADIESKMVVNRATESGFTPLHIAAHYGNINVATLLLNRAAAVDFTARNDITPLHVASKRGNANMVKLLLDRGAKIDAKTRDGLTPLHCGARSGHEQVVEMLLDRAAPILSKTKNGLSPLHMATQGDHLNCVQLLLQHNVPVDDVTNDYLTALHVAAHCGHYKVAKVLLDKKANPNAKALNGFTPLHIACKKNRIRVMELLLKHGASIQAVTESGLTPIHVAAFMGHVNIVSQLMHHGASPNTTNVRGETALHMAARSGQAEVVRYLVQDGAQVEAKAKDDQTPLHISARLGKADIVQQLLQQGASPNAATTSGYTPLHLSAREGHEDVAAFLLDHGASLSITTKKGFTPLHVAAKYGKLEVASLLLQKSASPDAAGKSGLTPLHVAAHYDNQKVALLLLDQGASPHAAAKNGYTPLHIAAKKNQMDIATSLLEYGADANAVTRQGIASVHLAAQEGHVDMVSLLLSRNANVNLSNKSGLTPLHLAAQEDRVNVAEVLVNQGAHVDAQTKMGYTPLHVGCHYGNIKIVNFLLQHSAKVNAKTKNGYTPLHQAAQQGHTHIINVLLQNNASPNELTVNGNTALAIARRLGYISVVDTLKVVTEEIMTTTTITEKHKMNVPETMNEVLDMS

[3] = target: T3, Nav1.2_ABD (ankyrin binding domain of Nav1.2, residues 1035–1129); assay: ITC; details: chain shown with the change
T3 chain: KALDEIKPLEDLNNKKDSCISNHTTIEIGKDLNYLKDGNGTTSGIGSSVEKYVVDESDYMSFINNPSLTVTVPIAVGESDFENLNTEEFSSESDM

[4] = target: T3, Nav1.2_ABD (ankyrin binding domain of …); assay: ITC; details: chain shown with the change
[5] = target: T3, Nav1.2_ABD (ankyrin binding domain of …); assay: ITC; details: chain shown with the change
[6] = target: T4, Nfasc_ABD (28-residue fragment of the neurofascin cytoplasmic tail, residues 1187–1214); assay: ITC; details: chain shown with the change;; parent: 0.21 ± 0.02
T4 chain: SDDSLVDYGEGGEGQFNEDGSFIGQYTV

MMNEDA [AnkB repeats R1-6]
Kd [1]: ~2.3 µM

B1: Nav1.2 ABD without the C-terminal less-conserved 10 residues of ABD-C (domain or fragment)
chain: KALDEIKPLEDLNNKKDSCISNHTTIEIGKDLNYLKDGNGTTSGIGSSVEKYVVDESDYMSFINNPSLTVTVPIAVGESDFENLN
Kd [2]: 0.17 µM

B2: AnkG_repeats (24 ANK repeats of rat 190 kDa ankyrin-G, residues 38–855), O70511 F131Q; F164Q (protein)
chain: KSDANASYLRAARAGHLEKALDYIKNGVDVNICNQNGLNALHLASKEGHVEVVSELLQREANVDAATKKGNTALHIASLAGQAEVVKVLVTNGANVNAQSQNGQTPLYMAAQENHLEVVRFLLDNGASQSLATEDGQTPLAVALQQGHDQVVSLLLENDTKGKVRLPALHIAARKDDTKAAALLLQNDTNADIESKMVVNRATESGFTPLHIAAHYGNINVATLLLNRAAAVDFTARNDITPLHVASKRGNANMVKLLLDRGAKIDAKTRDGLTPLHCGARSGHEQVVEMLLDRAAPILSKTKNGLSPLHMATQGDHLNCVQLLLQHNVPVDDVTNDYLTALHVAAHCGHYKVAKVLLDKKANPNAKALNGFTPLHIACKKNRIRVMELLLKHGASIQAVTESGLTPIHVAAFMGHVNIVSQLMHHGASPNTTNVRGETALHMAARSGQAEVVRYLVQDGAQVEAKAKDDQTPLHISARLGKADIVQQLLQQGASPNAATTSGYTPLHLSAREGHEDVAAFLLDHGASLSITTKKGFTPLHVAAKYGKLEVASLLLQKSASPDAAGKSGLTPLHVAAHYDNQKVALLLLDQGASPHAAAKNGYTPLHIAAKKNQMDIATSLLEYGADANAVTRQGIASVHLAAQEGHVDMVSLLLSRNANVNLSNKSGLTPLHLAAQEDRVNVAEVLVNQGAHVDAQTKMGYTPLHVGCHYGNIKIVNFLLQHSAKVNAKTKNGYTPLHQAAQQGHTHIINVLLQNNASPNELTVNGNTALAIARRLGYISVVDTLKVVTEEIMTTTTITEKHKMNVPETMNEVLDMS
Kd [3]: 6.6 µM
Kd [4]: 6.6 µM

B3: AnkG_repeats (24 ANK repeats of rat 190 kDa ankyrin-G, residues 38–855), O70511 L366Q; F399Q; L432Q (protein)
chain: KSDANASYLRAARAGHLEKALDYIKNGVDVNICNQNGLNALHLASKEGHVEVVSELLQREANVDAATKKGNTALHIASLAGQAEVVKVLVTNGANVNAQSQNGFTPLYMAAQENHLEVVRFLLDNGASQSLATEDGFTPLAVALQQGHDQVVSLLLENDTKGKVRLPALHIAARKDDTKAAALLLQNDTNADIESKMVVNRATESGFTPLHIAAHYGNINVATLLLNRAAAVDFTARNDITPLHVASKRGNANMVKLLLDRGAKIDAKTRDGLTPLHCGARSGHEQVVEMLLDRAAPILSKTKNGLSPLHMATQGDHLNCVQLLLQHNVPVDDVTNDYQTALHVAAHCGHYKVAKVLLDKKANPNAKALNGQTPLHIACKKNRIRVMELLLKHGASIQAVTESGQTPIHVAAFMGHVNIVSQLMHHGASPNTTNVRGETALHMAARSGQAEVVRYLVQDGAQVEAKAKDDQTPLHISARLGKADIVQQLLQQGASPNAATTSGYTPLHLSAREGHEDVAAFLLDHGASLSITTKKGFTPLHVAAKYGKLEVASLLLQKSASPDAAGKSGLTPLHVAAHYDNQKVALLLLDQGASPHAAAKNGYTPLHIAAKKNQMDIATSLLEYGADANAVTRQGIASVHLAAQEGHVDMVSLLLSRNANVNLSNKSGLTPLHLAAQEDRVNVAEVLVNQGAHVDAQTKMGYTPLHVGCHYGNIKIVNFLLQHSAKVNAKTKNGYTPLHQAAQQGHTHIINVLLQNNASPNELTVNGNTALAIARRLGYISVVDTLKVVTEEIMTTTTITEKHKMNVPETMNEVLDMS
Kd [5]: 1.1 µM
Kd [6]: 6 µM
Kd [3]: 1.1 µM
